# Values of other authors as cited in article PMC3433420.
# Like-named read-outs stand apart in the source and are kept apart here.
# Columns and labels:
# Conditions in all cases: cited from earlier work
# [1] = molecular target: SYK-NC (Homo sapiens) (UniProt P43405)
# [2] = molecular target: GRB7 (Homo sapiens) (UniProt Q14451)
# [3] = molecular target: PIK3R1-N (Homo sapiens) (UniProt P27986)
# [4] = molecular target: SLA (Homo sapiens) (UniProt Q13239)
# [5] = molecular target: BLK (Homo sapiens) (UniProt P51451)
# [6] = molecular target: ITK (Homo sapiens) (UniProt Q08881)
# Chain of ITK (Homo sapiens) (Q08881 234-343): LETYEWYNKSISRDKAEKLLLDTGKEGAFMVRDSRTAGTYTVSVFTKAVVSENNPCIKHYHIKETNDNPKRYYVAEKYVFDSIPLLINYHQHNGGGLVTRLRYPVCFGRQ
# [7] = molecular target: ABL2 (Homo sapiens) (UniProt P42684)
# Chain of ABL2 (Homo sapiens) (P42684 168-268): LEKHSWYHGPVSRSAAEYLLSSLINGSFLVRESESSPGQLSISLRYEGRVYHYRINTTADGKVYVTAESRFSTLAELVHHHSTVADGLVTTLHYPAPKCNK
# [8] = molecular target: CRK (Homo sapiens) (UniProt P46108)
# Chain of CRK (Homo sapiens) (P46108 8-123): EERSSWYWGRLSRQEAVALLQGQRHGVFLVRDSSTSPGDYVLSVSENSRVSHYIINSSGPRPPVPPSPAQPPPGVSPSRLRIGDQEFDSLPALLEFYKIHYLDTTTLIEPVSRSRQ
# [9] = molecular target: PLCG1-NC (Homo sapiens) (UniProt P19174)
# Chain of PLCG1-NC (Homo sapiens) (P19174 545-761): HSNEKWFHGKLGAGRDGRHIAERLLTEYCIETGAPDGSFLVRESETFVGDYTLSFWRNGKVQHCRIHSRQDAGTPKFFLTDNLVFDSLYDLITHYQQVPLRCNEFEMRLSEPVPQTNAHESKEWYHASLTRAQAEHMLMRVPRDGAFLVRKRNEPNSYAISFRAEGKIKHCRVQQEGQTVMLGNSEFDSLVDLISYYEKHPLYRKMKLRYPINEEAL
# [10] = molecular target: PTPN11-NC (Homo sapiens) (UniProt Q06124)
# [11] = molecular target: PLCG2-NC (Homo sapiens) (UniProt P16885)
# Chain of PLCG2-NC (Homo sapiens) (P16885 527-740): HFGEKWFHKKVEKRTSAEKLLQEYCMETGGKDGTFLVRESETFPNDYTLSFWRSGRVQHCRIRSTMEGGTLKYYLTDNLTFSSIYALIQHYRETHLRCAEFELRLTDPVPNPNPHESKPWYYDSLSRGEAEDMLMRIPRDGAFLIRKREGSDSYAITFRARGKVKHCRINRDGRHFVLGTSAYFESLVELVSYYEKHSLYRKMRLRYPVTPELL
# [12] = molecular target: PIK3R3-NC (Homo sapiens) (UniProt Q92569)
# [13] = molecular target: LYN (Homo sapiens) (UniProt P07948)
# Chain of LYN (Homo sapiens) (P07948 124-231): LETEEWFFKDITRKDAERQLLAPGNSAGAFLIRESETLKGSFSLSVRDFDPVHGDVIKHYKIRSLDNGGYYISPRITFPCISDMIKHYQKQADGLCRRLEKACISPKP
# [14] = molecular target: FGR (Homo sapiens) (UniProt P09769)
# [15] = molecular target: RASA1-N (Homo sapiens) (UniProt P20936)
# Chain of RASA1-N (Homo sapiens) (P20936 176-446): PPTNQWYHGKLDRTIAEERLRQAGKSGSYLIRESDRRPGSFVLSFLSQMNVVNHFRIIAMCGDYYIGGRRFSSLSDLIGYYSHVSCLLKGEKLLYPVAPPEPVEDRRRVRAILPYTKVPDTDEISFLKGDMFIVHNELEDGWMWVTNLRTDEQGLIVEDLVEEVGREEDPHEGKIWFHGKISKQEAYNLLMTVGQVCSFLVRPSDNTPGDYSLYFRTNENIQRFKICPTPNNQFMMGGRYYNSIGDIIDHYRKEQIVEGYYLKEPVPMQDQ
# [16] = molecular target: TENC1 (Homo sapiens) (UniProt Q63HR2)
# [17] = molecular target: VAV1 (Homo sapiens) (UniProt P15498)
# Chain of VAV1 (Homo sapiens) (P15498 666-770): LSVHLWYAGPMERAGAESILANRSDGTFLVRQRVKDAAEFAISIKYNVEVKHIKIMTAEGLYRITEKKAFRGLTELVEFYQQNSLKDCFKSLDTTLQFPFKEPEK
# [18] = molecular target: SH2D2A (Homo sapiens) (UniProt Q9NP31)
# [19] = molecular target: GRB2 (Homo sapiens) (UniProt P62993)
# Chain of GRB2 (Homo sapiens) (P62993 55-157): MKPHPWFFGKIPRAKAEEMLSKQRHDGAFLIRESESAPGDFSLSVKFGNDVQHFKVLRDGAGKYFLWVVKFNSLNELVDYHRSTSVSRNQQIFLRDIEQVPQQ
# [20] = molecular target: PIK3R1-NC (Homo sapiens) (UniProt P27986)
# Chain of PIK3R1-NC (Homo sapiens) (P27986 328-723): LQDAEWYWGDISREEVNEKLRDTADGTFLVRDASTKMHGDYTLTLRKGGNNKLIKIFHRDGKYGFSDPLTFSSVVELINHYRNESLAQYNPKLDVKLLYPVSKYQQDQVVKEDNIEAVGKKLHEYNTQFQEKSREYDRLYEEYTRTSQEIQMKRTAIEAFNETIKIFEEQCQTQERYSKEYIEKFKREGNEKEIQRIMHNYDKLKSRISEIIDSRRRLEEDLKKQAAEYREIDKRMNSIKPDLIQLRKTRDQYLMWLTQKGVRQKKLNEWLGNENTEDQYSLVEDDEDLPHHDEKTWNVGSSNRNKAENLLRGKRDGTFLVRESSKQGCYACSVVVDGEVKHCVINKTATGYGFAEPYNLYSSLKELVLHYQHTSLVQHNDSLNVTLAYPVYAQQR
# [21] = molecular target: ABL1 (Homo sapiens) (UniProt P00519)
# Chain of ABL1 (Homo sapiens) (P00519 122-222): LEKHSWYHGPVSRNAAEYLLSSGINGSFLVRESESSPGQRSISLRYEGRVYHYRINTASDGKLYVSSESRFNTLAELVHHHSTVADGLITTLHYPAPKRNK
# [22] = molecular target: SH3BP2 (Homo sapiens) (UniProt P78314)
# Chain of SH3BP2 (Homo sapiens) (P78314 452-560): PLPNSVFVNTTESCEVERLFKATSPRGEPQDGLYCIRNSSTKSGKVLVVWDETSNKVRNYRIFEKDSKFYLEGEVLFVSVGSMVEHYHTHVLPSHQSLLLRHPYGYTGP
# [23] = molecular target: NCK2 (Homo sapiens) (UniProt O43639)
# Chain of NCK2 (Homo sapiens) (O43639 280-380): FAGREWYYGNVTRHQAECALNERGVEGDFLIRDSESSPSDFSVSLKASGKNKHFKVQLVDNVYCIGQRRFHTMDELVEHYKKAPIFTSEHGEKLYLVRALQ
# [24] = molecular target: PIK3R3-N (Homo sapiens) (UniProt Q92569)
# [25] = molecular target: TNS3 (Homo sapiens) (UniProt Q68CZ2)
# [26] = molecular target: SRC (Homo sapiens) (UniProt P12931)
# [27] = molecular target: PIK3R2-NC (Homo sapiens) (UniProt O00459)
# [28] = molecular target: BCAR3 (Homo sapiens) (UniProt O75815)
# Chain of BCAR3 (Homo sapiens) (O75815 149-258): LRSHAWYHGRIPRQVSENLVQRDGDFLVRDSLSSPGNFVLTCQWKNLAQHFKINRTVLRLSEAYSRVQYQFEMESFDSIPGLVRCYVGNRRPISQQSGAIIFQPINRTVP
# [29] = molecular target: VAV2 (Homo sapiens) (UniProt P52735)
# Chain of VAV2 (Homo sapiens) (P52735 668-772): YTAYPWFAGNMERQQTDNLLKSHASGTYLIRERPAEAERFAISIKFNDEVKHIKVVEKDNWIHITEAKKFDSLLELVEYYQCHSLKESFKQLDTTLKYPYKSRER
# [30] = molecular target: BMX (Homo sapiens) (UniProt P51813)
# Chain of BMX (Homo sapiens) (P51813 291-397): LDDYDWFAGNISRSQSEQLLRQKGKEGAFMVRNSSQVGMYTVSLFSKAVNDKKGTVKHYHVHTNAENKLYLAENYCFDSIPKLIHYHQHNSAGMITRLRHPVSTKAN
# [31] = molecular target: CRKL (Homo sapiens) (UniProt P46109)
# Chain of CRKL (Homo sapiens) (P46109 9-107): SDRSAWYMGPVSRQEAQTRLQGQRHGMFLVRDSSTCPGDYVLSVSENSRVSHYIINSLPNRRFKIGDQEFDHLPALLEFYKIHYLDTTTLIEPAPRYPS
# [32] = molecular target: GRAP2 (Homo sapiens) (UniProt O75791)
# Chain of GRAP2 (Homo sapiens) (O75791 53-154): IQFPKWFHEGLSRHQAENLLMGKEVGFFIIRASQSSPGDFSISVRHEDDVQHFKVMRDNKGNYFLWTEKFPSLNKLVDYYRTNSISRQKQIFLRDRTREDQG
# [33] = molecular target: HCK (Homo sapiens) (UniProt P08631)
# [34] = molecular target: PIK3R2-N (Homo sapiens) (UniProt O00459)
# Chain of PIK3R2-N (Homo sapiens) (O00459 325-721): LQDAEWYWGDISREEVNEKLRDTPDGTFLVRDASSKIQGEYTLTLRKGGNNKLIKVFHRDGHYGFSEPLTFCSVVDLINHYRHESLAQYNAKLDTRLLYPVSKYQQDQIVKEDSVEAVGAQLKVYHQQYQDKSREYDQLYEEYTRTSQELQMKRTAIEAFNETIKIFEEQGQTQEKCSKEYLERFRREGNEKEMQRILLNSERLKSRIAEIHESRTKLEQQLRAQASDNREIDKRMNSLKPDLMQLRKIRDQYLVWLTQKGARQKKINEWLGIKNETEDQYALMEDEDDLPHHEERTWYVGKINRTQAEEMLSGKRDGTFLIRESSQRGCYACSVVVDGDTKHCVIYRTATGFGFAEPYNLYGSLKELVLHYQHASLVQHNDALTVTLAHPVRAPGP
# [35] = molecular target: PIK3R3-C (Homo sapiens) (UniProt Q92569)
# [36] = molecular target: PLCG1-C (Homo sapiens) (UniProt P19174)
# Chain of PLCG1-C (Homo sapiens) (P19174 545-761): as the sequence (P19174 545-761) above
# [37] = molecular target: SYK-NC (Homo sapiens) (UniProt P43405); remark: listed apart in the source
# [38] = molecular target: SLA (Homo sapiens) (UniProt Q13239); remark: listed apart in the source
# [39] = molecular target: ABL2 (Homo sapiens) (UniProt P42684); remark: listed apart in the source
# [40] = molecular target: ABL2 (Homo sapiens) (UniProt P42684); remark: listed apart in the source
# [41] = molecular target: CRK (Homo sapiens) (UniProt P46108); remark: listed apart in the source
# [42] = molecular target: PLCG1-NC (Homo sapiens) (UniProt P19174); remark: listed apart in the source
# [43] = molecular target: PIK3R3-NC (Homo sapiens) (UniProt Q92569); remark: listed apart in the source
# [44] = molecular target: VAV3 (Homo sapiens) (UniProt Q9UKW4)
# [45] = molecular target: RASA1-N (Homo sapiens) (UniProt P20936); remark: listed apart in the source
# [46] = molecular target: RASA1-N (Homo sapiens) (UniProt P20936); remark: listed apart in the source
# [47] = molecular target: VAV1 (Homo sapiens) (UniProt P15498); remark: listed apart in the source
# [48] = molecular target: NCK2 (Homo sapiens) (UniProt O43639); remark: listed apart in the source
# [49] = molecular target: PTPN11-N (Homo sapiens) (UniProt Q06124)
# [50] = molecular target: VAV2 (Homo sapiens) (UniProt P52735); remark: listed apart in the source
# [51] = molecular target: VAV2 (Homo sapiens) (UniProt P52735); remark: listed apart in the source
# [52] = molecular target: CRKL (Homo sapiens) (UniProt P46109); remark: listed apart in the source
# [53] = molecular target: PIK3R2-N (Homo sapiens) (UniProt O00459); remark: listed apart in the source
# [54] = molecular target: PLCG1-C (Homo sapiens) (UniProt P19174); remark: listed apart in the source
# Chain of SLA (Homo sapiens) (Q13239 79-180): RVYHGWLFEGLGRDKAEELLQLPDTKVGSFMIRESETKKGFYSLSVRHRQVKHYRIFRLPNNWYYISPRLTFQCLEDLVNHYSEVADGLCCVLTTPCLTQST
# Chain of PIK3R1-N (Homo sapiens) (P27986 328-723): as the sequence (P27986 328-723) above
# Chain of GRB7 (Homo sapiens) (Q14451 426-532): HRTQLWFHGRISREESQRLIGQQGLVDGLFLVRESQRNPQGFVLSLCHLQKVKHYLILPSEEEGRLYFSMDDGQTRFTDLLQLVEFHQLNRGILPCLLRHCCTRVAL
substance,measurement,setting,value
…pYVNQPDVR,apparent Kd (screen),[1],0.973 µM
same,apparent Kd (screen),[2],2 µM
same,apparent Kd (screen),[3],0.508 µM
same,apparent Kd (screen),[4],2 µM
same,apparent Kd (screen),[5],2 µM
same,apparent Kd (screen),[6],1.51 µM
same,apparent Kd (screen),[7],0.071 µM
same,apparent Kd (screen),[8],2 µM
same,apparent Kd (screen),[9],2 µM
same,apparent Kd (screen),[10],0.877 µM
same,apparent Kd (screen),[11],1.28 µM
same,apparent Kd (screen),[12],0.304 µM
same,apparent Kd (screen),[13],2 µM
same,apparent Kd (screen),[14],0.454 µM
same,apparent Kd (screen),[15],0.675 µM
same,apparent Kd (screen),[16],0.565 µM
same,apparent Kd (screen),[17],0.206 µM
same,apparent Kd (screen),[18],0.98 µM
same,apparent Kd (screen),[19],0.076 µM
same,apparent Kd (screen),[20],0.741 µM
same,apparent Kd (screen),[21],0.157 µM
same,apparent Kd (screen),[22],0.406 µM
same,apparent Kd (screen),[23],0.777 µM
same,apparent Kd (screen),[24],0.395 µM
same,apparent Kd (screen),[25],0.765 µM
same,apparent Kd (screen),[26],2 µM
same,apparent Kd (screen),[27],0.776 µM
same,apparent Kd (screen),[28],1 µM
same,apparent Kd (screen),[29],0.226 µM
same,apparent Kd (screen),[30],0.52 µM
same,apparent Kd (screen),[31],2 µM
same,apparent Kd (screen),[32],0.958 µM
same,apparent Kd (screen),[33],2 µM
same,apparent Kd (screen),[34],0.281 µM
same,apparent Kd (screen),[35],1.22 µM
same,apparent Kd (screen),[36],1.93 µM
…pYLNPVEENd,apparent Kd (screen),[37],2 µM
same,apparent Kd (screen),[38],2 µM
same,apparent Kd (screen),[39],0.283 µM
same,apparent Kd (screen),[40],0.316 µM
same,apparent Kd (screen),[41],2 µM
same,apparent Kd (screen),[42],2 µM
same,apparent Kd (screen),[43],2 µM
same,apparent Kd (screen),[44],2 µM
same,apparent Kd (screen),[45],0.983 µM
same,apparent Kd (screen),[46],2 µM
same,apparent Kd (screen),[47],2 µM
same,apparent Kd (screen),[48],2 µM
same,apparent Kd (screen),[49],2 µM
same,apparent Kd (screen),[50],0.1 µM
same,apparent Kd (screen),[51],2 µM
same,apparent Kd (screen),[52],2 µM
same,apparent Kd (screen),[53],2 µM
same,apparent Kd (screen),[54],2 µM
